According to article PMC12615753, “Glutathione as a taste modulator: molecular mechanisms of interaction with umami and sweet taste receptors” (Food Chemistry: Molecular Sciences, 2025):
Like-named read-outs stand apart in the source and are kept apart here.

How the values were obtained:
hTAS1R1/rTAS1R3 = target: T1, hTAS1R1/rTAS1R3 (UniProt Q7RTX1+Q923K1); test: Calcium assay (GCaMP6s, Gα15i2) in transiently transfected HEK293T/17 cells; type: cell-based, human, rat
T1 construct: UniProtKB number Q7RTX1–1); The cDNA coding region of rTAS1R3 was synthesized with optimized-codon usage for human expression; expressed in transfected cells; host or cells: HEK293T/17 (ATCC CRL-11268)
T1 sequence (Q7RTX1 21-841): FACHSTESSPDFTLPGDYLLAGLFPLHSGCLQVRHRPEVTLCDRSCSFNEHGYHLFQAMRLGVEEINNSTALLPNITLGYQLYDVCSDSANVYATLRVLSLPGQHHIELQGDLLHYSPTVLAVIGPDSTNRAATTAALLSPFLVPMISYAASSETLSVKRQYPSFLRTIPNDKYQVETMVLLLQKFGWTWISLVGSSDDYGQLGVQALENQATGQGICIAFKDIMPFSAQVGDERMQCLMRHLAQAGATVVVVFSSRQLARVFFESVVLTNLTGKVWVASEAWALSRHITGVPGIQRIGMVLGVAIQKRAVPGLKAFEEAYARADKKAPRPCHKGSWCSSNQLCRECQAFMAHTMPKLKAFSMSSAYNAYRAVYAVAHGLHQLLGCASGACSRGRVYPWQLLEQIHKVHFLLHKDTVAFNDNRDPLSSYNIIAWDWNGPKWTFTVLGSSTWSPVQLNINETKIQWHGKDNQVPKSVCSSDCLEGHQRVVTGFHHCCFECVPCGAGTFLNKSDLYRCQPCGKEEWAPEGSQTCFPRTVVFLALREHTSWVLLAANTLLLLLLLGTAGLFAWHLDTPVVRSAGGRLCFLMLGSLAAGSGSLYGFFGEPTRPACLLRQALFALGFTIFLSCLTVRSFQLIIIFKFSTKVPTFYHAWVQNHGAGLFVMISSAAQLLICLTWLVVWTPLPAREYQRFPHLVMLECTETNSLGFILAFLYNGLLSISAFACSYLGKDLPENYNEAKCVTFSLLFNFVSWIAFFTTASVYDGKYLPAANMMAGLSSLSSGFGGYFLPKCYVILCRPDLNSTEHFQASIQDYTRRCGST
T1 sequence (Q923K1 21-858): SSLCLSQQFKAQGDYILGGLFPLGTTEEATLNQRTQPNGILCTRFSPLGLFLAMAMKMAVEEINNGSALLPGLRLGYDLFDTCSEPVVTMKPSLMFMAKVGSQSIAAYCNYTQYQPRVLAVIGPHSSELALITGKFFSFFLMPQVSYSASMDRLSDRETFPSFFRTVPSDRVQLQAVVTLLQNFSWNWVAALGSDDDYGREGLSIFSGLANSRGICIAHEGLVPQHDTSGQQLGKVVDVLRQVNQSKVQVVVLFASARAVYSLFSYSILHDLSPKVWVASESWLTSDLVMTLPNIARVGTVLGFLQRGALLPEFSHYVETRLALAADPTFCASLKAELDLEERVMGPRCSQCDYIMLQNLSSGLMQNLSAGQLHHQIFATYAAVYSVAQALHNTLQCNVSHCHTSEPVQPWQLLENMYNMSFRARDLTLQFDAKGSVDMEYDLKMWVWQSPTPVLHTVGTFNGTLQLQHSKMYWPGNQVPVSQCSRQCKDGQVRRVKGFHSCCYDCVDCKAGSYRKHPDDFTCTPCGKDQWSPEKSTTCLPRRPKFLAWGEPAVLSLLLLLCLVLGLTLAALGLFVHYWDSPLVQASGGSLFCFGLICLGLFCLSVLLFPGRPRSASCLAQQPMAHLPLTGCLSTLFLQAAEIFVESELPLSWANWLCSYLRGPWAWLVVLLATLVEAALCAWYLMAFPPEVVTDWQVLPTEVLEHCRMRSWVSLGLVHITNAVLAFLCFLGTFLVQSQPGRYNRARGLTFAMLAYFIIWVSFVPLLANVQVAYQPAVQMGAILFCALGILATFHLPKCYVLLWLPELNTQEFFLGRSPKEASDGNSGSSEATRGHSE
Method: To this end, hTAS1R1/rTAS1R3 and the chimeric G protein Gα15i2 were transiently expressed in HEK293T cells. Cellular responses were assessed via calcium imaging using a fluorescent protein calcium biosensor (GCaMP6s) and compared with those of mock-transfected cells.

[1] = target: hTAS1R1 subunit expressed alone (human) (UniProt Q7RTX1)
[2] = target: hTAS1R1/rTAS1R3 umami taste receptor (wild type) (human | rat) (UniProt Q7RTX1)
[3] = target: hTAS1R1(H71A)/rTAS1R3 (human | rat) (UniProt Q7RTX1)
[4] = target: hTAS1R1(R277A)/rTAS1R3 (human | rat) (UniProt Q7RTX1)
[5] = target: hTAS1R1/rTAS1R3 umami taste receptor (wild type) (human | rat) (UniProt Q7RTX1); remark: listed apart in the source
[6] = target: hTAS1R1(L223A)/rTAS1R3 (human | rat) (UniProt Q7RTX1)
[7] = target: hTAS1R1(H308A)/rTAS1R3 (human | rat) (UniProt Q7RTX1)
[8] = target: hTAS1R1(A170W)/rTAS1R3 (human | rat) (UniProt Q7RTX1)
[9] = target: hTAS1R1(Q278K)/rTAS1R3 (human | rat) (UniProt Q7RTX1)
[10] = target: hTAS1R1(R151A)/rTAS1R3 (human | rat) (UniProt Q7RTX1)
[11] = target: hTAS1R1(Q278A)/rTAS1R3 (human | rat) (UniProt Q7RTX1)
[12] = target: hTAS1R1(Q278Y)/rTAS1R3 (human | rat) (UniProt Q7RTX1)
[13] = target: hTAS1R1(A302W)/rTAS1R3 (human | rat) (UniProt Q7RTX1)
[14] = target: hTAS1R1(H71L)/rTAS1R3 (human | rat) (UniProt Q7RTX1)
[15] = target: hTAS1R1(D192A)/rTAS1R3 (human | rat) (UniProt Q7RTX1)
[16] = target: hTAS1R2/hTAS1R3 sweet taste receptor (human) (UniProt Q8TE23)
Chain of hTAS1R2/hTAS1R3 sweet taste receptor (human) (Q8TE23 20-839, chain 1 of 2): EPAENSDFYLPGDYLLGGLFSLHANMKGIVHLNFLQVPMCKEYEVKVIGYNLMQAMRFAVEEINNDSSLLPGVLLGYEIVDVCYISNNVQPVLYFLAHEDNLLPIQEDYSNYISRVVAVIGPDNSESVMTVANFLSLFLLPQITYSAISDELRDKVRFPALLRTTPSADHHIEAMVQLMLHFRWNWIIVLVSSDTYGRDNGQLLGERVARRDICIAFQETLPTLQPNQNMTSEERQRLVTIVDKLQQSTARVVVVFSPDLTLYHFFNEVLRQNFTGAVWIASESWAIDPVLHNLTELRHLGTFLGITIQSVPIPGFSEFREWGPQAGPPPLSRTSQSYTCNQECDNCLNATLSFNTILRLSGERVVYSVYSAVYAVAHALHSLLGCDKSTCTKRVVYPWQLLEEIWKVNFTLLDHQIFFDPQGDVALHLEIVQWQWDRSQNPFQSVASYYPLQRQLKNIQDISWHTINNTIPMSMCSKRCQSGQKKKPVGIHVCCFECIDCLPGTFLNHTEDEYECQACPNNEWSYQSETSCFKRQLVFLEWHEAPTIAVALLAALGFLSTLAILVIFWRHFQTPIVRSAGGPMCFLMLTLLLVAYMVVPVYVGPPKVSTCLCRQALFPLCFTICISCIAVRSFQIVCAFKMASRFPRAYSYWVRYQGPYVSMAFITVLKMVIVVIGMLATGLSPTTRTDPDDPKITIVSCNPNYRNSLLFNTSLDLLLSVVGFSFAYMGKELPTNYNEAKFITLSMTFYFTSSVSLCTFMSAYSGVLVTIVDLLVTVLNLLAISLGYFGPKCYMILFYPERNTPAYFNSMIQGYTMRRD
Chain of hTAS1R2/hTAS1R3 sweet taste receptor (human) (Q7RTX0 21-852, chain 2 of 2, further chain): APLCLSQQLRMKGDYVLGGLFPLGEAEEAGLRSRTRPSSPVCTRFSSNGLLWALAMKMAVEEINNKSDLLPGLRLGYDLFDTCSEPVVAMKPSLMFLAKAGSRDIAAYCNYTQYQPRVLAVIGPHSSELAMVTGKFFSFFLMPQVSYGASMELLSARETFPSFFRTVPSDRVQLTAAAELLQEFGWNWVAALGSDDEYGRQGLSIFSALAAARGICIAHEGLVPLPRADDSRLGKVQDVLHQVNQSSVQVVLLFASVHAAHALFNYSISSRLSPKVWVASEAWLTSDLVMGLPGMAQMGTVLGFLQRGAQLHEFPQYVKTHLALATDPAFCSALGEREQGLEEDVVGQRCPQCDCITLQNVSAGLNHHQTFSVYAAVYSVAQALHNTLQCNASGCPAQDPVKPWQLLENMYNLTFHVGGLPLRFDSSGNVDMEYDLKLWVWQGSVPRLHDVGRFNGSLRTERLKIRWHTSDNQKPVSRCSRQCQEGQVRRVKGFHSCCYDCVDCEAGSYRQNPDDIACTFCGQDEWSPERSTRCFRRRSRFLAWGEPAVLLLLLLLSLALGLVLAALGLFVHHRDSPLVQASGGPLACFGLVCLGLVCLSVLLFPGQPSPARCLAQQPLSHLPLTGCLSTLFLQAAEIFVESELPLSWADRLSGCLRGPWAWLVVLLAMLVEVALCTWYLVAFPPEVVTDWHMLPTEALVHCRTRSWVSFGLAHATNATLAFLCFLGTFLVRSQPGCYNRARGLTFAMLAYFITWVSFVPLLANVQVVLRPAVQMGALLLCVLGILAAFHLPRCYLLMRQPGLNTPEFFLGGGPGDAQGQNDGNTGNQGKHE

[17] = target: hTAS1R2/rTAS1R3 sweet taste receptor (human | rat) (UniProt Q8TE23)
Chain of hTAS1R2/rTAS1R3 sweet taste receptor (human | rat) (Q8TE23 20-839): as the sequence (Q8TE23 20-839, chain 1 of 2) above

umami perception = settings: ref Shigemura et al., 2009, cited from earlier work

Nc1nc2c(ncn2[C@@H]2O[C@H](COP(=O)(O)O)[C@@H](O)[C@H]2O)c(=O)[nH]1 [GMP, guanosine 5′-monophosphate, reference compound]
effect of the added 5′-ribonucleotide on the response to GSH (hTAS1R1/rTAS1R3; Fig. 6C–D): did not significantly increase
activation of the receptor (hTAS1R1/rTAS1R3; compound alone): did not activate

Reduced L-glutathione (γ-L-glutamyl-L-cysteinyl-glycine) (peptide)
EC50 of GSH in the presence of 0.1 μM S807, calcium response of HEK293 cells expressing hTAS1R1 alone [1]: 0.281 mM
EC50 of GSH, calcium response (GCaMP6s fluorescence) of transfected HEK293T cells [2]: 2.15 mM
EC50 of GSH, calcium response of transfected HEK293 cells [3]: 2.03 mM
EC50 of GSH, calcium response of transfected HEK293 cells [4]: 1.84 mM
EC50 of GSH, calcium response of transfected HEK293 cells (mutant series) [5]: 2.52 mM
EC50 of GSH, calcium response of transfected HEK293 cells [6]: 2.32 mM
EC50 of GSH, calcium response of transfected HEK293 cells [7]: 3.25 mM
EC50 of GSH, calcium response of transfected HEK293 cells [8]: 5.29 mM
EC50 of GSH, calcium response of transfected HEK293 cells [9]: 5.66 mM
EC50 of GSH, calcium response of transfected HEK293 cells [10]: 2.59 mM
EC50 of GSH, calcium response of transfected HEK293 cells [11]: 3.42 mM
EC50 of GSH, calcium response of transfected HEK293 cells [12]: 3.96 mM
EC50 of GSH, calcium response of transfected HEK293 cells [13]: 5.32 mM
EC50 of GSH, calcium response of transfected HEK293 cells [14]: 2.27 mM
EC50 of GSH, calcium response of transfected HEK293 cells [15]: 3.25 mM
EC50 of GSH, calcium response of cells expressing the sweet taste receptor [16]: 0.591 mM
EC50 of GSH, calcium response of cells expressing the sweet taste receptor [17]: 4.06 mM

γ-L-Glutamyl-L-cysteine (peptide)
EC50 of Glu-Cys, calcium response (GCaMP6s fluorescence) of transfected HEK293T cells [2]: 3.2 mM

N[C@@H](CCC(=O)O)C(=O)[O-].[Na+] [MSG, monosodium glutamate]
sensory recognition threshold (umami perception; MSG alone): 7.66 mM
sensory recognition threshold (umami perception; in the presence of 0.05 mM IMP): 0.20 mM

N[C@@H](CCC(=O)N[C@@H](CS)C(=O)O)C(=O)O [Glu-Cys, γ-L-Glutamyl-L-cysteine]
EC50 (hTAS1R1/rTAS1R3; agonist alone, Fig. 1, Fig. S2): 3.2 ± 1.54 mM
max ∆F/F0 (hTAS1R1/rTAS1R3; agonist alone, Fig. 1, Fig. S2): 0.42 ± 0.07
